Stoichiometry N data for one substance are collected here from article PMC9391305.

For orientation: stoichiometry N means the number of molecules, sites or subunits per partner or assembly.

For the test, the target named is endogenous PKM2 of murine PDA^T and PDA^M cells (mouse (endogenous in PDA^T and PDA^M cells)) (UniProt P52480). As to the kind of experiment: cross-linking.

Chain of endogenous PKM2 of murine PDA^T and PDA^M cells, P52480 1-531 (enzyme; other documents disagree on this pair) (P52480 whole entry): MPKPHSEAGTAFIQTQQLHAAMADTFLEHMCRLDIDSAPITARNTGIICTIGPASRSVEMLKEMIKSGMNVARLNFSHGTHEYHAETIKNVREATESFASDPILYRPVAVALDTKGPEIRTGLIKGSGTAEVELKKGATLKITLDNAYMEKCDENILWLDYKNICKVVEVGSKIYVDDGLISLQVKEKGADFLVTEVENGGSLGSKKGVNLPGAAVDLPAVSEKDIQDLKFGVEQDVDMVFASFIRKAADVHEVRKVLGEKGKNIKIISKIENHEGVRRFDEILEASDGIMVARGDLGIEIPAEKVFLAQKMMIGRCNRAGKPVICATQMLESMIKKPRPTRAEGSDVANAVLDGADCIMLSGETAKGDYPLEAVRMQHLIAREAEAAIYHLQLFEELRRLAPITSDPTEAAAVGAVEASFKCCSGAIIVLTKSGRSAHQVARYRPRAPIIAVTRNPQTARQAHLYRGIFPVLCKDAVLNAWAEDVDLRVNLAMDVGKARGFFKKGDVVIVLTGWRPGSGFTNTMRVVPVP

Substance “endogenous PKM2 of murine PDA^T and PDA^M cells, P52480 1-531 (enzyme; other documents disagree on this pair)” came in with a stoichiometry N of 4.
